Data published in patent US20260242478A1 (published 2026).
Where no end group is shown, it is not given here.

Tests used:
[1] = target: T1, Anti-CD28 Fab (SEQ ID NOs: 696, 697); test: phage binding ELISA; biotinylated anti-CD28 Fab on neutravidin plate, clonal phage supernatant, anti-M13 HRP
T1 construct: In the phage ELISA the Fab was biotinylated and captured on neutravidin coated plates

[2] = target: T1, Anti-CD28 Fab (SEQ ID NOs: 696, 697); test: phage binding ELISA on captured anti-CD28 Fab; wells pre-incubated with CD28 antigen as competitor
PSMA Fab (006 PSMA Fab) [3] = target: T2, PSMA Fab (006 PSMA Fab); test: phage ELISA; PSMA Fab on plate pre-incubated with PSMA antigen as competitor, anti-M13 HRP detection;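 further: crude clonal phage supernatants added to Fab-coated wells still holding PSMA antigen in blocking buffer, with bound phage as read-out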
T2 construct: also called Anti-PSMA Fab; anti-PSMA Fab

PSMA Fab (006 PSMA Fab) [4] = target: T2, PSMA Fab (006 PSMA Fab); test: phage ELISA; biotinylated PSMA Fab on neutravidin plate, clonal phage supernatant, anti-M13 HRP detection;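 further: wells preincubated with PSMA antigen in blocking buffer or with blocking buffer only before clonal phage were added for a short incubation, then bound phage detected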
Anti-PSMA Fab [5] = target: T3, Anti-PSMA Fab; test: clonal phage ELISA; biotinylated anti-PSMA Fab on neutravidin plate; anti-M13 HRP detection; competitor: PSMA antigen pre-added
T3 construct: Biotinylated and captured on neutravidin plates in the phage ELISA; also called 006 PSMA Fab

Anti-PSMA Fab [6] = target: T3, Anti-PSMA Fab; test: clonal phage ELISA; biotinylated anti-PSMA Fab on neutravidin plate; anti-M13 HRP detection; no PSMA added
Ab-15 [7] = test: BLI (Octet): sensor loaded with 200 nM biotinylated peptide, 100 nM Ab-15;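 further: binding association and dissociation tracked in real time, fitted to a 1:1 binding model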
Ab-15 [8] = test: BLI (Octet): biotinylated peptide on sensor, Ab-15 titrated, 1:1 model
Ab-15 [9] = test: competition ELISA: peptide titrated against 1 nM Ab-15; competitor plate-bound CD28
Ab-15 [10] = test: binding ELISA: biotinylated peptide on neutravidin plate, Ab-15 titrated
PSMA Fab = target: T4, PSMA Fab; test: BLI (Octet); PSMA Fab on sensor-loaded biotinylated peptide, 1:1 model
T4 construct: also called 006 PSMA Fab; anti-PSMA Fab

B1: Phage-1347 (peptide)
peptide: TCSAGAHYPWPICL
notes: Clonal phage of the Peptide-92 library, tested as crude supernatant; not shown: fused to the pIII filament of the bacteriophage
Anti-CD28 Fab (SEQ ID NOs: 696, 697) signal [1]: 1.78
Anti-CD28 Fab signal in the presence of CD28 [2]: 0.07

B2: Phage-3904 (peptide)
peptide: GYHLCIPEWMCSGL
notes: tested as crude clonal phage supernatant
Phage binding ELISA signal, Anti-PSMA Fab in presence of PSMA antigen (PSMA Fab (006 PSMA Fab) [3]): 0.0923
Phage binding ELISA signal, Anti-PSMA Fab (PSMA Fab (006 PSMA Fab) [4]): 1.06

AGYACVPSWMCEGF [Phage-3626]
Phage binding ELISA signal, Anti-PSMA Fab with PSMA antigen (Anti-PSMA Fab [5]): 0.105
Phage binding ELISA signal, Anti-PSMA Fab (Anti-PSMA Fab [6]): 1.55

LAVKCEPAWMCTGF [Phage-3627]
Phage binding ELISA signal, Anti-PSMA Fab with PSMA antigen (Anti-PSMA Fab [5]): 0.0802
Phage binding ELISA signal, Anti-PSMA Fab (Anti-PSMA Fab [6]): 1.55

DLMMCVPAWMCEGF [Phage-3629]
Phage binding ELISA signal, Anti-PSMA Fab with PSMA antigen (Anti-PSMA Fab [5]): 0.0929
Phage binding ELISA signal, Anti-PSMA Fab (Anti-PSMA Fab [6]): 1.55

B3: Phage-3909 (peptide)
peptide: VMAVCQPEWMCSGM
notes: as for B2
Phage binding ELISA signal, Anti-PSMA Fab in presence of PSMA antigen (PSMA Fab (006 PSMA Fab) [3]): 0.0731
Phage binding ELISA signal, Anti-PSMA Fab (PSMA Fab (006 PSMA Fab) [4]): 1.05

B4: Phage-3903 (peptide)
peptide: LGPMCRPNWMCVGL
notes: as for B2
Phage binding ELISA signal, Anti-PSMA Fab in presence of PSMA antigen (PSMA Fab (006 PSMA Fab) [3]): 0.0797
Phage binding ELISA signal, Anti-PSMA Fab (PSMA Fab (006 PSMA Fab) [4]): 1.06

DDRVCRPDWMCNGF [Phage-3624]
Phage binding ELISA signal, Anti-PSMA Fab with PSMA antigen (Anti-PSMA Fab [5]): 0.0665
Phage binding ELISA signal, Anti-PSMA Fab (Anti-PSMA Fab [6]): 1.56

B5: Phage-3905 (peptide)
peptide: ADVLCRPHWMCAGF
notes: as for B2
Phage binding ELISA signal, Anti-PSMA Fab in presence of PSMA antigen (PSMA Fab (006 PSMA Fab) [3]): 0.0581
Phage binding ELISA signal, Anti-PSMA Fab (PSMA Fab (006 PSMA Fab) [4]): 1.06

RDWCPRDLWVHCFA (cysteine pairing not given here; also: biotinylated, site not given here, CD28 peptide mask) [Peptide-53]
Octet signal (Ab-15 [7]): 1.22
t1/2 (Ab-15 [7]): 4.9 min
Kd (Ab-15 [8]): 20.3 nM
t1/2 (Ab-15 [8]): 6.2 min
IC50 (Ab-15 [9]): 170 nM
EC50 (Ab-15 [10]): 14.6 nM

EDWCPRDLWVHCFA (cysteine pairing not given here; also: biotinylated, site not given here, CD28 peptide mask) [Peptide-57]
Octet signal (Ab-15 [7]): 1.02
t1/2 (Ab-15 [7]): 3 min
Kd (Ab-15 [8]): 23.2 nM
t1/2 (Ab-15 [8]): 3.1 min
IC50 (Ab-15 [9]): 300 nM
EC50 (Ab-15 [10]): 32.8 nM

KDWCPRDLWVHCFA (cysteine pairing not given here; also: biotinylated, site not given here, CD28 peptide mask) [Peptide-62]
Octet signal (Ab-15 [7]): 1.13
t1/2 (Ab-15 [7]): 4 min
Kd (Ab-15 [8]): 26.1 nM
t1/2 (Ab-15 [8]): 4.5 min
IC50 (Ab-15 [9]): 190 nM
EC50 (Ab-15 [10]): 19.7 nM

TDWCPRDLWVHCFA (cysteine pairing not given here; also: biotinylated, site not given here, CD28 peptide mask) [Peptide-66]
Octet signal (Ab-15 [7]): 1.34
t1/2 (Ab-15 [7]): 4.2 min
Kd (Ab-15 [8]): 25.5 nM
t1/2 (Ab-15 [8]): 4.7 min
IC50 (Ab-15 [9]): 590 nM
EC50 (Ab-15 [10]): 24 nM

QDWCPRDLWVHCFA (cysteine pairing not given here; also: biotinylated, site not given here, CD28 peptide mask) [Peptide-56]
Octet signal (Ab-15 [7]): 1.12
t1/2 (Ab-15 [7]): 3.6 min
Kd (Ab-15 [8]): 24.6 nM
t1/2 (Ab-15 [8]): 4.2 min
IC50 (Ab-15 [9]): 330 nM
EC50 (Ab-15 [10]): 25.7 nM

B6: Phage-3898 (peptide)
peptide: ESQYCVPRWMCDGF
notes: as for B2
Phage binding ELISA signal, Anti-PSMA Fab in presence of PSMA antigen (PSMA Fab (006 PSMA Fab) [3]): 0.0633
Phage binding ELISA signal, Anti-PSMA Fab (PSMA Fab (006 PSMA Fab) [4]): 1.08

B7: Peptide-267 (peptide)
peptide: FTNYCVPSWMCTGF
notes: From the Peptide-180 optimisation phage library
Off rate t1/2 (PSMA Fab): 1.9 min

B8: Phage-3906 (peptide)
peptide: SDALCRPHWMCAGF
notes: as for B2
Phage binding ELISA signal, Anti-PSMA Fab in presence of PSMA antigen (PSMA Fab (006 PSMA Fab) [3]): 0.061
Phage binding ELISA signal, Anti-PSMA Fab (PSMA Fab (006 PSMA Fab) [4]): 1.06

B9: Phage-1353 (peptide)
peptide: LCKPGVPYKWPTCL
notes: as for B1
Anti-CD28 Fab signal in the presence of CD28 [2]: 0.07

B10: Phage-1345 (peptide)
peptide: SCSAGAHYPWPQCF
notes: as for B1
Anti-CD28 Fab (SEQ ID NOs: 696, 697) signal [1]: 1.16
Anti-CD28 Fab signal in the presence of CD28 [2]: 0.06

B11: Phage-1348 (peptide)
peptide: SCSAGAAYYWPWCL
notes: as for B1
Anti-CD28 Fab (SEQ ID NOs: 696, 697) signal [1]: 1.9
Anti-CD28 Fab signal in the presence of CD28 [2]: 0.09

B12: Phage-3910 (peptide)
peptide: VIPLCRPSWMCAAY
notes: as for B2
Phage binding ELISA signal, Anti-PSMA Fab in presence of PSMA antigen (PSMA Fab (006 PSMA Fab) [3]): 0.116
Phage binding ELISA signal, Anti-PSMA Fab (PSMA Fab (006 PSMA Fab) [4]): 1.04

ELHLCIPSWMCTGL [Phage-3630]
Phage binding ELISA signal, Anti-PSMA Fab with PSMA antigen (Anti-PSMA Fab [5]): 0.104
Phage binding ELISA signal, Anti-PSMA Fab (Anti-PSMA Fab [6]): 1.54

VHPMCTPLWMCVGF [Phage-3628]
Phage binding ELISA signal, Anti-PSMA Fab with PSMA antigen (Anti-PSMA Fab [5]): 0.0993
Phage binding ELISA signal, Anti-PSMA Fab (Anti-PSMA Fab [6]): 1.55

B13: Phage-3901 (peptide)
peptide: YVMMCVPQWMCTAK
notes: as for B2
Phage binding ELISA signal, Anti-PSMA Fab in presence of PSMA antigen (PSMA Fab (006 PSMA Fab) [3]): 0.069
Phage binding ELISA signal, Anti-PSMA Fab (PSMA Fab (006 PSMA Fab) [4]): 1.06

B14: Phage-1349 (peptide)
peptide: TCSAGATWAWPLCF
notes: as for B1
Anti-CD28 Fab (SEQ ID NOs: 696, 697) signal [1]: 2.31
Anti-CD28 Fab signal in the presence of CD28 [2]: 0.09

DWVMCKPEWMCAGF [Phage-3625]
Phage binding ELISA signal, Anti-PSMA Fab with PSMA antigen (Anti-PSMA Fab [5]): 0.0618
Phage binding ELISA signal, Anti-PSMA Fab (Anti-PSMA Fab [6]): 1.55

YMMKCIPEWMCTGL [Phage-3622]
Phage binding ELISA signal, Anti-PSMA Fab with PSMA antigen (Anti-PSMA Fab [5]): 0.0662
Phage binding ELISA signal, Anti-PSMA Fab (Anti-PSMA Fab [6]): 1.56

B15: Phage-1346 (peptide)
peptide: TCSAGATYEWPRCL
notes: as for B1
Anti-CD28 Fab (SEQ ID NOs: 696, 697) signal [1]: 1.84
Anti-CD28 Fab signal in the presence of CD28 [2]: 0.06

B16: Phage-3902 (peptide)
peptide: GHMYCSPLWMCEGF
notes: as for B2
Phage binding ELISA signal, Anti-PSMA Fab in presence of PSMA antigen (PSMA Fab (006 PSMA Fab) [3]): 0.131
Phage binding ELISA signal, Anti-PSMA Fab (PSMA Fab (006 PSMA Fab) [4]): 1.06

IVKFCIPQWMCDGF [Phage-3623]
Phage binding ELISA signal, Anti-PSMA Fab with PSMA antigen (Anti-PSMA Fab [5]): 0.147
Phage binding ELISA signal, Anti-PSMA Fab (Anti-PSMA Fab [6]): 1.56

B17: Phage-3900 (peptide)
peptide: GNDYCVPAWMCAGF
notes: as for B2
Phage binding ELISA signal, Anti-PSMA Fab in presence of PSMA antigen (PSMA Fab (006 PSMA Fab) [3]): 0.0974
Phage binding ELISA signal, Anti-PSMA Fab (PSMA Fab (006 PSMA Fab) [4]): 1.06

B18: Peptide-277 (peptide)
peptide: VVIKCKPEWMCSGF
notes: as for B7
Off rate t1/2 (PSMA Fab): 1.9 min

B19: Phage-3899 (peptide)
peptide: FERVCVPAWMCAGF
notes: as for B2
Phage binding ELISA signal, Anti-PSMA Fab in presence of PSMA antigen (PSMA Fab (006 PSMA Fab) [3]): 0.0668
Phage binding ELISA signal, Anti-PSMA Fab (PSMA Fab (006 PSMA Fab) [4]): 1.07

B20: Phage-3908 (peptide)
peptide: TERMCSPSWMCDGF
notes: as for B2
Phage binding ELISA signal, Anti-PSMA Fab in presence of PSMA antigen (PSMA Fab (006 PSMA Fab) [3]): 0.0693
Phage binding ELISA signal, Anti-PSMA Fab (PSMA Fab (006 PSMA Fab) [4]): 1.05

B21: Phage-3907 (peptide)
peptide: SLERCEPPWMCFGF
notes: as for B2
Phage binding ELISA signal, Anti-PSMA Fab in presence of PSMA antigen (PSMA Fab (006 PSMA Fab) [3]): 0.0697
Phage binding ELISA signal, Anti-PSMA Fab (PSMA Fab (006 PSMA Fab) [4]): 1.06
